# Results as given in patent publication US20050147610A1.
# Columns and labels:
# [1] = biological target: NEM-huIL-18 (recombinant mature human IL-18 treated with N-ethyl maleiamide) (human) (UniProt Q14116); assay: cell-based or functional assay
# [2] = biological target: 125I labeled rhu-IL-18 (human) (UniProt Q14116); assay: RBA: inhibition of 125I-rhu-IL-18 binding to IL-18Rαβ on KG-1 cells
# [3] = biological target: (4C/A)-huIL-18 (4C/A mutant of mature human IL-18) (human) (UniProt Q14116); assay: BIACORE
# [4] = biological target: NEM-huIL-18 (recombinant mature human IL-18 treated with N-ethyl maleiamide) (human) (UniProt Q14116); assay: Biacore
# [5] = biological target: (4C/A)-huIL-18 (4C/A mutant of mature human IL-18) (human) (UniProt Q14116); assay: Biacore
# [6] = biological target: recombinant mature human IL-18 (preparation not specified) (human) (UniProt Q14116); assay: cell-based or functional assay
# [7] = biological target: natural human IL-18 (endogenous, human whole blood) (human) (UniProt Q14116); assay: cell-based or functional assay
"KG-1 Assays (IC50, M), NEM-rhuIL-18 [1] [M]",IC50 [2] [nM],Kd [3] [nM],koff [3] [s⁻¹],kon [3] [M⁻¹ s⁻¹],Kd [4] [nM],Kd [5] [nM],"KG-1, Neutralization Potency in vitro (IC50, nM) [6] [nM]","WBA, Neutralization Potency in vitro (IC50, nM) [7] [nM]",Binder
7e-09,–,–,–,–,–,–,–,–,"268 (antibody, V domains shown) VH: ZVQLVESGGGVVQPGRSLRLSCAASGFTFRNYGLHWVRQAPGKGLEWVAVIWYDGSNKYYADSVKGRFTISRDNSKNTLYLQMNSLRAEDTAVYYCARESYYYYGMDVWGQGTTVTVSS VL: EIVMTQSPATLSVSPGERATLSCRASQSFNSNLVWYQQKPGQAPRLLIYGASTRATGIPARFSGSGSGTEFTLTISSLQSEDFAVYYCQQYNNWTWTFGQGTKVEIKR"
–,> 300,0.55,0.00011,190000,0.2,0.2,0.2,3,"Murine anti-human IL-18 mAb (125-2H) (antibody, from another filing, V domains shown) VH: EIQLQQSGPELVKPGASVKVSCKASGYSFTDYFIYWVKQSHGKSLEWIGDIDPYNGDTSYNQKFRDKATLTVDQSSTTAFMHLNSLTSEDSAVYFCARGLRFWGQGTLVTVSA VL: DIQMTQSPSSLSASLGERVSLTCRASQDIGSKLYWLQQEPDGTFKRLIYATSSLDSGVPKRFSGSRSGSDYSLTISSLESEDFVDYYCLQYASSPYTFGGGTKLAIKR"
